Source: the nanobody polyreactivity screen of Harvey et al. (2022)

Assay: yeast display, Sf9 membrane polyspecificity reagent, FACS + sequencing; frameworks hold sequencing errors
How it was run: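 Polyreactivity labels are assigned by the sorting gate from which each nanobody was recovered. The gates were low and high (top ~1%), set on anti-HA fluorescence for expression and streptavidin fluorescence for reagent binding. Before sorting, galactose-induced (36–48 hours) yeast display cells were stained for 1 hour at 4 °C with 10% biotinylated, detergent-solubilized Sf9 membrane reagent.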

Sequence | polyreactivity (PSR sort gate)
QVQLVETGGGLVQAGGSLRLSCAASGRIFEIYAMGWYRQAPGKERELVAAIDESGGSTYYADSVKGRFTISRDNGKNTVYLQMNSLKPEDTAVYYCATDDTWTITYGWYWFTYEYWGQCTQVTVSS | low polyreactivity
QVQLVESGGGLVQAGGSLRLSCAASGFIFYRYTMGWYRPAPGKERELVASITWSDGSTSYADSVNGRFTISRDNAKNTVYLQMNSLKPEDTAVYYCAADVSYQVIYEYDYSGQGTQVTVSS | low polyreactivity
QVQLVESGGGLVQAGGSLRLSCAASGTFIGYAMGWYRQAPGKERELVAAIDVSGGSTYYADSVKGRFTISRDNAKNTVYLQMNSLKPEDTAVYYCATDRGPEVVLYDYWGHGTQVTVSS | low polyreactivity
QVQLVESGGGLVQAGGSLRLSCAASGSIIDRNAMGWYRQAPGKERELVAAITSGGSTYYADSVKGRFTISRDNAKHTDYLKLNSLKPEDTAVYYCNADTDPPVPLYYWGQGSQVTVSS | low polyreactivity
QVQLVESGGGLVQAGGILRLSCAASGRTFQGNAMGWSRQAPGKERELVAVIDSGTSTDYADSVKGRFTISRDNAKNTVYLQMNSLKPEDTAVYYCAADGALGYNLRYDYWGQGTQVTVSS | low polyreactivity
QVQLVESGGGLVQAGGSLRLSCAASGSIFSYYAMGWYRQAPGKERELVAAITTSGGSTYYADSVKGRFTISRDNAKNTVYLQMNSLKPEDTAVYYCNAGPYWWYYGEDYWGQGSQVTVSS | low polyreactivity
QVQLVESGGGLVQEGGSLRVSCAASGRTFRWYTMGWYRQAPGKEREFVAAITWSGSSTNYADSVKGRFTISRDNAKNTVYLQMNSLKPEDTAVYYCAGEKRRRRDDYWGQGTHVTVSS | high polyreactivity
QVQLVESGGGLVQAGGSLRLSCAASGRISLGNAMGWYRQAPGKERELVAVITRGGRTSYADSVKGRFTISRDNAKNTVYLQMNSLKPEDTAVYYCAAESPVYHLVTYDYWGQGTQVTVSS | high polyreactivity
QVQLVESAGGLVQAGGSHRLSFAATGRIFGPNTMGWYRQAPGKERDLVATITGGGGTNYADSVKGRFRISRVNAKYTDYLQMNSLKPVDTAVYYCAADYGGAYEYGYWGQGTQVTVSS | low polyreactivity
QVQLVESGGGLVQAGGSLRLSCAASGRIFAHYAMGWYRQAPGKEMELFATISLSVGSTYYADSVKGRFTISRDNAKNTVYLQMNSLKPEDTSVYYCNATGYYATSHITYDYWGQVTQVTVSS | low polyreactivity
QVQLVESGGGLVQAGGSLRLSCAASGIIFGYNAMGWYRQAPGKERELVAAISTSGGSTYYADSVKGRFTISRDNAKNTVYLQMNSLKPEDTAVYYCAAGYRRTYGFNYWGQGTQVTVSS | low polyreactivity
QVQLVESGGGLLQAGGSLRLSCAASGRIFHYYAMGWYRQAPGKERELVAGIETSGGSTYYADSVNWRFTISRDNAKNTVYLKLNSLKPEDTAVYYCATDQYYSYDYVYWGQGTQVTVSS | low polyreactivity
QVQLVESGGGLVQAGGSLSLSCAASGFIFHFNAMGWYIQAPGKEREVVAAISRTGGTTYYADSVKGRFTLSRDNAKNTVYLQMNSLKPEVTAVYYCAAYSTYGQHYDYWGQGTQVTVSS | high polyreactivity
QVQLVESGGGLVQAGGSLRLSCAASGSIFNKNAMGWYRQAPGKERELVAAITSSGSSTYYADSVKGRFTISRDNAKNTVYLQMNSLKPEDTAVYYCNAQYGIRPRAGRTRQKYDYWGQGTQVTVSS | high polyreactivity
QVQLHESGGGLVQAGGSLRMSCAASGTISVTYNKGWYRQAPGKEREFVAGNSTGATTNYADSVKGRFTISRDNAKNCVYLQMNSLKPDDTAVYYCAAHIYRQDHFYYWGQGTQVTVSS | low polyreactivity
QVQLQESGGGLVQAGGSLRLSCAASRNISGSSDLGWYHQAPGKEREFVASITSGGTTYYADSVKGRFTISRDNAKNTVYLQMNSLKPEDTAVYYCAVGDPADAEFGYWGQGTQVTVSS | low polyreactivity
QVQLVESWGGLVQAGGSLRLSCAASGSIFDNYAMGWYRQAPGKERELVAAISWSGGRTYYADSVKGRFTISRDNAKNTVYLQMNSLKPEDTAVYYCAAYVYTSFLYYYWGQGTQVTVSS | high polyreactivity
